{"source": "paper PMC4702109", "about": "“Osmotic stress induces the phosphorylation of WNK4 Ser575 via the p38MAPK-MK pathway” (Scientific Reports, 2016)", "binders": {"B1": {"name": "WNK4 (557–580)-WT peptide (peptide, UniProt Q96J92 557-580, looked up)", "peptide": "EPEEPEADQHQPFLFRHASYSSTT", "notes": "Held on anti-FLAG antibody beads; also called unphosphorylated peptide; source: synthetic peptide (bought: Eurofins Genomics)"}, "B2": {"name": "WNK4 (557–580)-pS575 peptide (peptide, UniProt Q96J92 557-580, looked up)", "peptide": "EPEEPEADQHQPFLFRHA[pS]YSSTT", "modifications": "also: FLAG tag, position not given here", "notes": "Held on anti-FLAG antibody beads; also called peptide phosphorylated at Ser575; source: synthetic peptide (bought: Eurofins Genomics)"}}, "biological_target": "T1, GST-hKLHL3 (290–587) (human, UniProt Q9UH77 290-587)", "T1 construct": "Kelch-like protein 3 (KLHL3), human, residues 290-587; End of the tag read from the construct's name; also called GST-KLHL3 (290–587); GST-KLHL3; source: E. coli BL21, purified (glutathione-Sepharose column, eluted with glutathione); not shown: GST, N-terminal, kept", "T1 sequence (looked up)": "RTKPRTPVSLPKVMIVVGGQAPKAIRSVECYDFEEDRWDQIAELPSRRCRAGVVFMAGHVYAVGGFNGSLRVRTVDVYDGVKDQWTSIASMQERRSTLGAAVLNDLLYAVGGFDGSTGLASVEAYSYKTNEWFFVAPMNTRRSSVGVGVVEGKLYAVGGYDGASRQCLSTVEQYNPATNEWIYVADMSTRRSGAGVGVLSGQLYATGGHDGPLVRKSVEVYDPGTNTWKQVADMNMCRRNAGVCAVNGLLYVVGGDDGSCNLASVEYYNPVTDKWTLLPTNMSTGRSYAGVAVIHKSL", "experiment": "pull-down; FLAG-tagged synthetic WNK4 (557–580) peptides (1 μg) held on anti-FLAG antibody beads; GST-hKLHL3 (290–587) incubated 6 hours, washed with IP lysis buffer; immunoblot; two amounts of GST-KLHL3 (3-fold apart)", "conditions": "both partners purified", "note": "Where no end group is shown, it is not given here. [ ]: non-standard residue; d: D form. pS = N[C@@H](COP(=O)(O)O)C(=O)O", "data": [{"binder": "B1", "values": [{"measurement": "binding result", "value": "binds"}]}, {"binder": "B2", "values": [{"measurement": "binding result", "value": "binds"}]}]}
